± gives the uncertainty stated by the source.
Test: self-splicing fitness, log relative to wild type (ln ratio); higher = more splicing; Tetrahymena group I intron in knt gene, E. coli kanamycin selection, DiMSum; sequences stand for … in CUCUCU…GGAGGGAAAAGUUAUCAGGCAUGCACCUGGUAGCUAGUCUUUAAACCAAUAGAUUGCAUCGGUUUAAAAGGCAAGACCGUCAAAUUGCGGGAAAGGGGUCAACAGCCGUUCAGUACCAAGUCUCAGGGGAAACUUUGAGAUGGCCUUGCAAAGGGUAUGGUAAUAAGCUGACGGACAUGGUCCUAACCACGCAGCCAAGUCCUAAGUCAACAGAUCUUCUGUUGAUAUGGAUGCAGUUCACAGACUAAAUGUCGGUCGGGGAAGAUGUAUUCUUCUCAUAAGAUAUAGUCGGACCUCUCCUUAAUGGGAGCUAGCGGAUGAAGUGAUGCAACACUGGAGCCGCUGGGAACUAAUUUGUAUGCGAAAGUAUAUUGAUUAGUUUUGGAGUACUCGUGGUCG
In short: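 Library with all eight P1ex-region intron nucleotides randomised, intron inside the knt kanamycin-resistance gene on pET-22b(+), in E. coli BL21(DE3). Cells grew overnight at 37°C or 30°C on LB agar with or without 25 μg/mL kanamycin (plus 100 μg/mL carbenicillin, 50 μM IPTG, 0.2% rhamnose), in six replicate transformations. Pooled colonies were amplicon-sequenced on Illumina HiSeq 2500. DiMSum fitness is the error-weighted combination of wild-type-normalised replicate fold changes, kanamycin versus none.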

Sequence	self-splicing fitness (ln) (30 °C)	self-splicing fitness (ln) (37 °C)
ACCAAGCAAUAUUACGCAUU	-2.81 ± 0.085	-1.26 ± 0.077
GUCUAGCAAUAUUACGACCU	-2.33 ± 0.21	-1.21 ± 0.17
ACGGAGCAAUAUUACGGUGG	-3.07 ± 0.18	-2.22 ± 0.26
CAAUAGCAAUAUUACGGGAG	-2.53 ± 0.085	-2 ± 0.09
GGUUAGCAAUAUUACGCAAG	-2.45 ± 0.16	-1.01 ± 0.12
GCUCAGCAAUAUUACGGAAU	-0.424 ± 0.083	0.224 ± 0.12
GCUGAGCAAUAUUACGUCCG	-2.38 ± 0.23	-2.3 ± 0.31
CAUCAGCAAUAUUACGUGCA	-3.14 ± 0.21	-1.97 ± 0.2
AGGCAGCAAUAUUACGCCCU	-2.89 ± 0.4	–
GCGUAGCAAUAUUACGAUAG	-2.2 ± 0.26	-1.83 ± 0.34
UCGUAGCAAUAUUACGUCAG	-3.66 ± 0.48	-1.89 ± 0.29
CAUAAGCAAUAUUACGCUGA	-2.49 ± 0.21	-2.62 ± 0.28
UCCAAGCAAUAUUACGCUGA	-1.43 ± 0.092	-1.07 ± 0.085
CGCAAGCAAUAUUACGCGAU	-3.15 ± 0.22	-3.83 ± 0.42
CCGUAGCAAUAUUACGCCUU	-3.08 ± 0.44	-2.19 ± 0.31
ACGAAGCAAUAUUACGCGAG	-1.48 ± 0.12	-0.723 ± 0.11
AUUGAGCAAUAUUACGGCGU	-0.734 ± 0.11	0.573 ± 0.17
UCCGAGCAAUAUUACGGUUG	-3.29 ± 0.26	-3.07 ± 0.3
GCAAAGCAAUAUUACGGGAC	-1.82 ± 0.11	-1.66 ± 0.16
GAUUAGCAAUAUUACGCCAG	-2.17 ± 0.32	-0.806 ± 0.34
GCGAAGCAAUAUUACGGGCC	–	-1.37 ± 0.46
GGAAAGCAAUAUUACGACAG	-2.98 ± 0.14	-2.17 ± 0.22
ACAUAGCAAUAUUACGGUAC	-4.24 ± 0.33	-2.51 ± 0.27
UCUGAGCAAUAUUACGACGA	-0.584 ± 0.11	0.197 ± 0.13
GUUCAGCAAUAUUACGUUAA	-1.02 ± 0.11	-0.264 ± 0.12
GACAAGCAAUAUUACGCGGU	-3.2 ± 0.24	-2.48 ± 0.24

Sequence	self-splicing fitness (ln) (30 °C)	self-splicing fitness (ln) (37 °C)
GGAAAGCAAUAUUACGUGAU	-2.79 ± 0.086	-1.76 ± 0.089
CAUGAGCAAUAUUACGUCAU	-3.61 ± 0.24	-1.24 ± 0.22
AUGAAGCAAUAUUACGGGCC	-1.73 ± 0.29	-0.73 ± 0.22
CAAUAGCAAUAUUACGCUCA	-0.892 ± 0.11	-1.73 ± 0.14
CCAGAGCAAUAUUACGUGUA	-3.22 ± 0.21	-2.08 ± 0.23
UGCAAGCAAUAUUACGUUAU	-3.76 ± 0.15	-1.3 ± 0.1
CACCAGCAAUAUUACGAACC	-3.66 ± 0.28	-0.707 ± 0.25
GGAGAGCAAUAUUACGAGGU	-3.34 ± 0.32	-3.01 ± 0.37
GCCGAGCAAUAUUACGAUCG	-2.36 ± 0.26	–
ACUUAGCAAUAUUACGUUAG	-2.09 ± 0.09	-1.5 ± 0.12
ACCGAGCAAUAUUACGGGAC	-2.88 ± 0.13	-2.49 ± 0.18
UCAGAGCAAUAUUACGCUAA	–	1.19 ± 0.3
CUUGAGCAAUAUUACGACUU	-2.53 ± 0.37	-3.56 ± 0.43
GGACAGCAAUAUUACGAGUA	-2.92 ± 0.15	-1.79 ± 0.13
CAUUAGCAAUAUUACGGACG	-0.114 ± 0.086	0.364 ± 0.11
GUCUAGCAAUAUUACGUGUU	-1.61 ± 0.092	-0.352 ± 0.093
AGUCAGCAAUAUUACGUCGA	-0.487 ± 0.1	-0.568 ± 0.13
GUCAAGCAAUAUUACGCAUG	-4.62 ± 0.34	-2.33 ± 0.17
ACAAAGCAAUAUUACGUCAG	-2.7 ± 0.14	-1.47 ± 0.12
UCUCAGCAAUAUUACGGCUU	-3.42 ± 0.2	-3.05 ± 0.18
UGGAAGCAAUAUUACGUCGG	-0.128 ± 0.11	-0.162 ± 0.11
CCAGAGCAAUAUUACGAAUU	-4 ± 0.28	-3.11 ± 0.43
CCCAAGCAAUAUUACGCGGC	-2.8 ± 0.2	-2.38 ± 0.23
GCGUAGCAAUAUUACGCGCA	–	-1.07 ± 0.35
AAGCAGCAAUAUUACGCCAG	-2.67 ± 0.36	-1.43 ± 0.41
UCGUAGCAAUAUUACGCGGG	-3.63 ± 0.37	-0.254 ± 0.15

Sequence	self-splicing fitness (ln) (30 °C)	self-splicing fitness (ln) (37 °C)
CUGCAGCAAUAUUACGCGAG	-3.67 ± 0.17	-1.98 ± 0.15
GUGCAGCAAUAUUACGUGUC	-2.72 ± 0.16	-2.48 ± 0.25
GCAUAGCAAUAUUACGCGUC	-3.3 ± 0.2	-2.97 ± 0.4
CUGAAGCAAUAUUACGUGAC	-1.24 ± 0.086	-0.353 ± 0.1
UGUCAGCAAUAUUACGAGUU	-1.33 ± 0.14	-1.44 ± 0.2
AAGUAGCAAUAUUACGCAAU	-2.09 ± 0.14	-1.46 ± 0.17
GUCAAGCAAUAUUACGCAAA	-1.99 ± 0.15	-1.46 ± 0.16
CUUAAGCAAUAUUACGUCAG	-0.948 ± 0.084	-0.564 ± 0.1
GGGCAGCAAUAUUACGAAUG	-2.93 ± 0.17	-2.12 ± 0.23
GCACAGCAAUAUUACGGCGU	-0.386 ± 0.061	0.414 ± 0.079
CAGGAGCAAUAUUACGUCUG	-2.47 ± 0.22	–
UAAUAGCAAUAUUACGUGUU	-1.68 ± 0.14	-1.97 ± 0.17
GGAAAGCAAUAUUACGGACC	-2.35 ± 0.36	-1.44 ± 0.41
CAGAAGCAAUAUUACGUGAG	-1.05 ± 0.064	-0.806 ± 0.076
CGAGAGCAAUAUUACGCGGG	-3.05 ± 0.32	-2.16 ± 0.27
CGUUAGCAAUAUUACGACAG	0.473 ± 0.14	-0.134 ± 0.15
UCCGAGCAAUAUUACGUUAU	-3.95 ± 0.21	-1.93 ± 0.19
ACAUAGCAAUAUUACGAAGC	–	-1.85 ± 0.42
GUUUAGCAAUAUUACGGUAA	-1.65 ± 0.18	-1.24 ± 0.14
ACUGAGCAAUAUUACGAUCG	-1.65 ± 0.15	-1.99 ± 0.21
CUAUAGCAAUAUUACGCGCG	-0.981 ± 0.2	0.458 ± 0.25
AACUAGCAAUAUUACGGGCG	-0.139 ± 0.081	-0.0101 ± 0.11
GGGUAGCAAUAUUACGUUAC	–	-4.17 ± 0.46
ACUAAGCAAUAUUACGCACC	-0.776 ± 0.12	-0.198 ± 0.13
GGCUAGCAAUAUUACGCCUC	-1.35 ± 0.18	-0.927 ± 0.23
GACCAGCAAUAUUACGGCAC	-0.0527 ± 0.076	0.491 ± 0.11

Reference: the supplement of paper PMC7877785
